Data from the supplement of paper PMC9112550, “Optimization of the antimicrobial peptide Bac7 by deep mutational scanning” (BMC Biology, 2022).

tested on: Escherichia coli TOP10; test: shrunken log2 fold change of peptide-encoding DNA abundance (4.5 h post-induction vs induction); higher = less antimicrobial activity (less host growth inhibition); conditions: time post-induction: 4.5 h; library: site-saturation at positions 5, 18, 19, 20
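Note: peptides expressed intracellularly from a pBAD plasmid library in pooled LB shake-flask culture, induced with 0.3% L-arabinose, DNA abundance read by NGS, three biological replicates, DESeq2 with apeglm shrinkage.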

Point of comparison: RRIRKRPPRLPRPRPRPDHWPRP, “shrunken log2 fold change” value 0.355. Against it:
- RRIRARPPRLPRPRPRPPMHPRP — within 0.2 log units, 0.51
- RRIRERPPRLPRPRPRPGFWPRP — within 0.2 log units, 0.407
- RRIRRRPPRLPRPRPRPASDPRP — lower, -0.0475
- RRIRNRPPRLPRPRPRPPDLPRP — lower, 0.101
- RRIRSRPPRLPRPRPRPRHCPRP — lower, 0.101
- RRIRHRPPRLPRPRPRPKTLPRP — lower, -0.984
- RRIRYRPPRLPRPRPRPQVGPRP — lower, -0.0385
- RRIRARPPRLPRPRPRPNCWPRP — higher, 0.563
- RRIRKRPPRLPRPRPRPWTCPRP — lower, -0.0961
- RRIRYRPPRLPRPRPRPLFCPRP — lower, -0.579
- RRIRIRPPRLPRPRPRPRDWPRP — within 0.2 log units, 0.429
- RRIRIRPPRLPRPRPRPGAMPRP — lower, 0.046
- RRIRGRPPRLPRPRPRPGKQPRP — lower, 0.0206
- RRIRHRPPRLPRPRPRPNQDPRP — lower, -0.337
- RRIRHRPPRLPRPRPRPFNDPRP — lower, -0.01
- RRIRQRPPRLPRPRPRPKMQPRP — lower, -0.134
- RRIRKRPPRLPRPRPRPIPMPRP — lower, 0.0472
- RRIRTRPPRLPRPRPRPLPNPRP — within 0.2 log units, 0.203
- RRIRLRPPRLPRPRPRPPPVPRP — higher, 0.98
- RRIRFRPPRLPRPRPRPNWCPRP — lower, -0.107
- RRIRWRPPRLPRPRPRPSLKPRP — lower, 0.0451
- RRIRCRPPRLPRPRPRPMALPRP — lower, -0.0797
- RRIRTRPPRLPRPRPRPGSIPRP — lower, -0.025
- RRIRRRPPRLPRPRPRPPYHPRP — lower, 0.124
- RRIRERPPRLPRPRPRPQMYPRP — lower, -0.337
- RRIRWRPPRLPRPRPRPYTPPRP — lower, -0.72
- RRIRDRPPRLPRPRPRPTFNPRP — lower, -0.0925
- RRIRQRPPRLPRPRPRPTWCPRP — within 0.2 log units, 0.171
- RRIRQRPPRLPRPRPRPVVDPRP — lower, -0.355
- RRIRMRPPRLPRPRPRPSPRPRP — higher, 1.05
- RRIRARPPRLPRPRPRPGEEPRP — higher, 0.999
- RRIRKRPPRLPRPRPRPNLNPRP — lower, -0.356
- RRIRRRPPRLPRPRPRPPIQPRP — within 0.2 log units, 0.16
- RRIRARPPRLPRPRPRPVKNPRP — within 0.2 log units, 0.384
- RRIRDRPPRLPRPRPRPGVTPRP — higher, 0.596
- RRIRFRPPRLPRPRPRPGHRPRP — lower, 0.0983
- RRIRCRPPRLPRPRPRPASCPRP — within 0.2 log units, 0.209
- RRIRVRPPRLPRPRPRPGGDPRP — lower, 0.0318
- RRIRTRPPRLPRPRPRPQVGPRP — lower, -0.137
- RRIRQRPPRLPRPRPRPAHLPRP — within 0.2 log units, 0.362
- RRIRHRPPRLPRPRPRPTCRPRP — lower, -0.232
- RRIRMRPPRLPRPRPRPHANPRP — lower, 0.0143
- RRIRKRPPRLPRPRPRPRCAPRP — higher, 0.568
- RRIRLRPPRLPRPRPRPRCSPRP — lower, 0.0191
- RRIRCRPPRLPRPRPRPKWCPRP — lower, -0.105
- RRIRPRPPRLPRPRPRPYRCPRP — lower, -0.173
- RRIRERPPRLPRPRPRPCMCPRP — lower, -1.03
- RRIRKRPPRLPRPRPRPMGDPRP — lower, 0.153
- RRIRIRPPRLPRPRPRPAKMPRP — lower, -0.101
- RRIRIRPPRLPRPRPRPANTPRP — lower, 0.027
- RRIRQRPPRLPRPRPRPHEWPRP — lower, 0.114
- RRIRRRPPRLPRPRPRPYGRPRP — lower, -0.0338
- RRIRYRPPRLPRPRPRPIKPPRP — lower, -0.0229
- RRIRERPPRLPRPRPRPELIPRP — lower, 0.0254
- RRIRYRPPRLPRPRPRPHVFPRP — lower, -0.0822
- RRIRVRPPRLPRPRPRPARKPRP — within 0.2 log units, 0.342
- RRIRPRPPRLPRPRPRPVSWPRP — higher, 0.704
- RRIRGRPPRLPRPRPRPYFPPRP — lower, -0.37
- RRIRRRPPRLPRPRPRPTGYPRP — within 0.2 log units, 0.246
- RRIRPRPPRLPRPRPRPYVSPRP — lower, 0.00613
- RRIRARPPRLPRPRPRPEPRPRP — higher, 0.679
- RRIRLRPPRLPRPRPRPEFEPRP — lower, 0.0191
- RRIRNRPPRLPRPRPRPLSLPRP — lower, -0.291
- RRIRGRPPRLPRPRPRPQKLPRP — lower, 0.13
- RRIRPRPPRLPRPRPRPFWYPRP — lower, -0.525
- RRIRFRPPRLPRPRPRPCQPPRP — lower, -0.134
- RRIRSRPPRLPRPRPRPINMPRP — lower, -0.928
- RRIRRRPPRLPRPRPRPPWHPRP — within 0.2 log units, 0.516
- RRIRGRPPRLPRPRPRPNKMPRP — within 0.2 log units, 0.162
- RRIRLRPPRLPRPRPRPLHIPRP — lower, -0.367
- RRIRCRPPRLPRPRPRPIGLPRP — lower, 0.00863
- RRIRCRPPRLPRPRPRPSDIPRP — lower, -0.814
- RRIRRRPPRLPRPRPRPKPGPRP — within 0.2 log units, 0.535
- RRIRCRPPRLPRPRPRPSLGPRP — lower, -0.0171
- RRIRWRPPRLPRPRPRPYFNPRP — lower, -1.06
- RRIRERPPRLPRPRPRPWASPRP — lower, -0.00133
- RRIRKRPPRLPRPRPRPFPVPRP — lower, -0.288
- RRIRARPPRLPRPRPRPFWSPRP — lower, 0.061
- RRIRDRPPRLPRPRPRPEWHPRP — higher, 0.623
- RRIRHRPPRLPRPRPRPHRYPRP — lower, -0.136
- RRIRWRPPRLPRPRPRPCNRPRP — lower, -0.0268
- RRIRFRPPRLPRPRPRPCFVPRP — lower, -0.578
- RRIRPRPPRLPRPRPRPKSDPRP — lower, 0.0265
- RRIRKRPPRLPRPRPRPVAFPRP — within 0.2 log units, 0.238
- RRIRPRPPRLPRPRPRPCCIPRP — lower, -0.269
- RRIRFRPPRLPRPRPRPDPSPRP — lower, -0.323
- RRIRNRPPRLPRPRPRPLWEPRP — lower, -0.106
- RRIRHRPPRLPRPRPRPEVVPRP — lower, -0.018
- RRIRTRPPRLPRPRPRPVGDPRP — within 0.2 log units, 0.21
- RRIRVRPPRLPRPRPRPGHKPRP — lower, -0.17
- RRIRVRPPRLPRPRPRPHYYPRP — lower, 0.0781
- RRIRARPPRLPRPRPRPERMPRP — higher, 0.618
- RRIRKRPPRLPRPRPRPVDWPRP — higher, 0.852
- RRIRIRPPRLPRPRPRPACPPRP — lower, -0.146
- RRIRPRPPRLPRPRPRPKNPPRP — lower, 0.0941
- RRIRFRPPRLPRPRPRPAHDPRP — lower, 0.0907
- RRIRRRPPRLPRPRPRPVNTPRP — lower, -0.0567
- RRIRFRPPRLPRPRPRPQWKPRP — lower, -0.0239
- RRIRTRPPRLPRPRPRPHRIPRP — lower, -0.052
- RRIRHRPPRLPRPRPRPDQYPRP — lower, 0.0188
- RRIRLRPPRLPRPRPRPYYPPRP — lower, -0.117
- RRIRQRPPRLPRPRPRPRMWPRP — lower, -0.429
- RRIRARPPRLPRPRPRPVCRPRP — within 0.2 log units, 0.505
- RRIRLRPPRLPRPRPRPSDYPRP — lower, -0.106
- RRIRGRPPRLPRPRPRPGKKPRP — lower, -0.0917
- RRIRQRPPRLPRPRPRPAFAPRP — within 0.2 log units, 0.344
- RRIRARPPRLPRPRPRPWLSPRP — within 0.2 log units, 0.18
- RRIRVRPPRLPRPRPRPCLKPRP — lower, -0.469
- RRIRCRPPRLPRPRPRPKIYPRP — lower, -0.643
- RRIRCRPPRLPRPRPRPHNNPRP — lower, -0.991
- RRIRSRPPRLPRPRPRPIGIPRP — lower, -0.67
- RRIRWRPPRLPRPRPRPREWPRP — higher, 1.22
- RRIRFRPPRLPRPRPRPDMMPRP — lower, -0.0389
- RRIRPRPPRLPRPRPRPMVIPRP — lower, -0.0869
- RRIRSRPPRLPRPRPRPNWGPRP — lower, -0.0911
- RRIRNRPPRLPRPRPRPDFKPRP — lower, -0.0167
- RRIRSRPPRLPRPRPRPVFQPRP — lower, -0.302
- RRIRWRPPRLPRPRPRPDWDPRP — within 0.2 log units, 0.243
- RRIRVRPPRLPRPRPRPDASPRP — lower, 0.0719
- RRIRRRPPRLPRPRPRPCFIPRP — lower, -0.127
- RRIRLRPPRLPRPRPRPSCIPRP — lower, -0.461
- RRIRARPPRLPRPRPRPCKDPRP — lower, 0.0511
- RRIRGRPPRLPRPRPRPCCCPRP — higher, 0.946
- RRIRWRPPRLPRPRPRPNFGPRP — within 0.2 log units, 0.174
